We go through 2 molecules from PMC8266045, “MT1-MMP-dependent ECM processing regulates laminB1 stability and mediates replication fork restart” (PLoS ONE, 2021).

B1: Focal Adhesion Kinase (natural protein, human (endogenous in MDA-MB-231), UniProt Q05397 1-1052, looked up)
chain: MAAAYLDPNLNHTPNSSTKTHLGTGMERSPGAMERVLKVFHYFESNSEPTTWASIIRHGDATDVRGIIQKIVDSHKVKHVACYGFRLSHLRSEEVHWLHVDMGVSSVREKYELAHPPEEWKYELRIRYLPKGFLNQFTEDKPTLNFFYQQVKSDYMLEIADQVDQEIALKLGCLEIRRSYWEMRGNALEKKSNYEVLEKDVGLKRFFPKSLLDSVKAKTLRKLIQQTFRQFANLNREESILKFFEILSPVYRFDKECFKCALGSSWIISVELAIGPEEGISYLTDKGCNPTHLADFTQVQTIQYSNSEDKDRKGMLQLKIAGAPEPLTVTAPSLTIAENMADLIDGYCRLVNGTSQSFIIRPQKEGERALPSIPKLANSEKQGMRTHAVSVSETDDYAEIIDEEDTYTMPSTRDYEIQRERIELGRCIGEGQFGDVHQGIYMSPENPALAVAIKTCKNCTSDSVREKFLQEALTMRQFDHPHIVKLIGVITENPVWIIMELCTLGELRSFLQVRKYSLDLASLILYAYQLSTALAYLESKRFVHRDIAARNVLVSSNDCVKLGDFGLSRYMEDSTYYKASKGKLPIKWMAPESINFRRFTSASDVWMFGVCMWEILMHGVKPFQGVKNNDVIGRIENGERLPMPPNCPPTLYSLMTKCWAYDPSRRPRFTELKAQLSTILEEEKAQQEERMRMESRRQATVSWDSGGSDEAPPKPSRPGYPSPRSSEGFYPSPQHMVQTNHYQVSGYPGSHGITAMAGSIYPGQASLLDQTDSWNHRPQEIAMWQPNVEDSTVLDLRGIGQVLPTHLMEERLIRQQQEMEEDQRWLEKEERFLKPDVRLSRGSIDREDGSLQGPIGNQHIYQPVGKPDPAAPPKKPPRPGAPGHLGSLASLSSPADSYNEGVKLQPQEISPPPTANLDRSNDKVYENVTGLVKAVIEMSSKIQPAPPEEYVPMVKEVGLALRTLLATVDETIPLLPASTHREIEMAQKLLNSDLGELINKMKLAQQYVMTSLQQEYKKQMLTAAHALAVDAKNLLDVIDQARLKMLGQTRPH
notes: Focal adhesion kinase (FAK), endogenous in human MDA-MB-231 breast cancer cells; Endogenous protein; also called FAK; source: endogenous, MDA-MB-231 lysate (RIPA buffer)
B2: laminB1 (natural protein, human (endogenous in MDA-MB-231), UniProt P20700 1-586, looked up)
chain: MATATPVPPRMGSRAGGPTTPLSPTRLSRLQEKEELRELNDRLAVYIDKVRSLETENSALQLQVTEREEVRGRELTGLKALYETELADARRALDDTARERAKLQIELGKCKAEHDQLLLNYAKKESDLNGAQIKLREYEAALNSKDAALATALGDKKSLEGDLEDLKDQIAQLEASLAAAKKQLADETLLKVDLENRCQSLTEDLEFRKSMYEEEINETRRKHETRLVEVDSGRQIEYEYKLAQALHEMREQHDAQVRLYKEELEQTYHAKLENARLSSEMNTSTVNSAREELMESRMRIESLSSQLSNLQKESRACLERIQELEDLLAKEKDNSRRMLTDKEREMAEIRDQMQQQLNDYEQLLDVKLALDMEISAYRKLLEGEEERLKLSPSPSSRVTVSRASSSRSVRTTRGKRKRVDVEESEASSSVSISHSASATGNVCIEEIDVDGKFIRLKNTSEQDQPMGGWEMIRKIGDTSVSYKYTSRYVLKAGQTVTIWAANAGVTASPPTDLIWKNQNSWGTGEDVKVILKNSQGEEVAQRSTVFKTTIPEEEEEEEEAAGVVVEEELFHQQGTPRASNRSCAIM
notes: Lamin B1, nuclear envelope intermediate filament protein, endogenous in human MDA-MB-231 breast cancer cells; The introduction says that laminB1 is tethered to the membrane via a farnesyl group; nothing is said of the modification state in the co-IP; also called LMNB1; source: endogenous, MDA-MB-231 lysate (RIPA buffer)

The assay “laminB1” addresses B2. As to the kind of experiment: co-IP; MDA-MB-231 lysate in RIPA buffer (50mM Tris HCl pH 8, 150 mM NaCl, 1% NP-40, 0.5% sodium deoxycholate); immunoprecipitated overnight at 4°C with laminB1 antibody; immunoblot with anti FAK and anti laminB1; IgG as negative control. The settings on record: partners not purified. (A western blot detects proteins with antibodies after separation by electrophoresis.)

The target in the assay “Focal Adhesion Kinase” is B1. As to the kind of experiment: co-IP; MDA-MB-231 lysate in RIPA buffer (50mM Tris HCl pH 8, 150 mM NaCl, 1% NP-40, 0.5% sodium deoxycholate); immunoprecipitated overnight at 4°C with FAK antibody; immunoblot with anti FAK and anti laminB1; IgG as negative control. As to conditions: partners not purified.

The molecule B1 returned an enrichment versus input with laminB1 of 6.4 ± 1.05 fold versus input.

In the case of B2, the enrichment versus input with Focal Adhesion Kinase is 5.5 ± 0.4 fold versus input.
